Data taken from IntAct's records for PubMed 22579248.

B1: Protein kinase C iota type (Mus musculus), Q62074 (parent)
chain: MPTQRDSSTMSHTVACGGGGDHSHQVRVKAYYRGDIMITHFEPSISFEGLCSEVRDMCSFDNEQPFTMKWIDEEGDPCTVSSQLELEEAFRLYELNKDSELLIHVFPCVPERPGMPCPGEDKSIYRRGARRWRKLYCANGHTFQAKRFNRRAHCAICTDRIWGLGRQGYKCINCKLLVHKKCHKLVTIECGRHSLPPEPMMPMDQTMHPDHTQTVIPYNPSSHESLDQVGEEKEAMNTRESGKASSSLGLQDFDLLRVIGRGSYAKVLLVRLKKTDRIYAMKVVKKELVNDDEDIDWVQTEKHVFEQASNHPFLVGLHSCFQTESRLFFVIEYVNGGDLMFHMQRQRKLPEEHARFYSAEISLALNYLHERGIIYRDLKLDNVLLDSEGHIKLTDYGMCKEGLRPGDTTSTFCGTPNYIAPEILRGEDYGFSVDWWALGVLMFEMMAGRSPFDIVGSSDNPDQNTEDYLFQVILEKQIRIPRSLSVKAASVLKSFLNKDPKERLGCHPQTGFADIQGHPFFRNVDWDMMEQKQVVPPFKPNISGEFGLDNFDSQFTNEPVQLTPDDDDIVRKIDQSEFEGFEYINPLLMSAEECV
B2: Partitioning defective 3 homolog (Homo sapiens), Q8TEW0 (parent)
chain: MKVTVCFGRTRVVVPCGDGHMKVFSLIQQAVTRYRKAIAKDPNYWIQVHRLEHGDGGILDLDDILCDVADDKDRLVAVFDEQDPHHGGDGTSASSTGTQSPEIFGSELGTNNVSAFQPYQATSEIEVTPSVLRANMPLHVRRSSDPALIGLSTSVSDSNFSSEEPSRKNPTRWSTTAGFLKQNTAGSPKTCDRKKDENYRSLPRDTSNWSNQFQRDNARSSLSASHPMVGKWLEKQEQDEDGTEEDNSRVEPVGHADTGLEHIPNFSLDDMVKLVEVPNDGGPLGIHVVPFSARGGRTLGLLVKRLEKGGKAEHENLFRENDCIVRINDGDLRNRRFEQAQHMFRQAMRTPIIWFHVVPAANKEQYEQLSQSEKNNYYSSRFSPDSQYIDNRSVNSAGLHTVQRAPRLNHPPEQIDSHSRLPHSAHPSGKPPSAPASAPQNVFSTTVSSGYNTKKIGKRLNIQLKKGTEGLGFSITSRDVTIGGSAPIYVKNILPRGAAIQDGRLKAGDRLIEVNGVDLVGKSQEEVVSLLRSTKMEGTVSLLVFRQEDAFHPRELNAEPSQMQIPKETKAEDEDIVLTPDGTREFLTFEVPLNDSGSAGLGVSVKGNRSKENHADLGIFVKSIINGGAASKDGRLRVNDQLIAVNGESLLGKTNQDAMETLRRSMSTEGNKRGMIQLIVARRISKCNELKSPGSPPGPELPIETALDDRERRISHSLYSGIEGLDESPSRNAALSRIMGESGKYQLSPTVNMPQDDTVIIEDDRLPVLPPHLSDQSSSSSHDDVGFVTADAGTWAKAAISDSADCSLSPDVDPVLAFQREGFGRQSMSEKRTKQFSDASQLDFVKTRKSKSMDLGIADETKLNTVDDQKAGSPSRDVGPSLGLKKSSSLESLQTAVAEVTLNGDIPFHRPRPRIIRGRGCNESFRAAIDKSYDKPAVDDDDEGMETLEEDTEESSRSGRESVSTASDQPSHSLERQMNGNQEKGDKTDRKKDKTGKEKKKDRDKEKDKMKAKKGMLKGLGDMFRFGKHRKDDKIEKTGKIKIQESFTSEEERIRMKQEQERIQAKTREFRERQARERDYAEIQDFHRTFGCDDELMYGGVSSYEGSMALNARPQSPREGHMMDALYAQVKKPRNSKPSPVDSNRSTPSNHDRIQRLRQEFQQAKQDEDVEDRRRTYSFEQPWPNARPATQSGRHSVSVEVQMQRQRQEERESSQQAQRQYSSLPRQSRKNASSVSQDSWEQNYSPGEGFQSAKENPRYSSYQGSRNGYLGGHGFNARVMLETQELLRQEQRRKEQQMKKQPPSEGPSNYDSYKKVQDPSYAPPKGPFRQDVPPSPSQVARLNRLQTPEKGRPFYS
partner: B1 chain

Variants of: B1
Conditions: with pard3_human PARD3, Q8TEW0

Variant	effect of a mutation on the interaction
D291K;D292L;E293Q;D294K	decreasing interaction strength
N417D	decreasing interaction strength

Variants of: B1
Conditions: with pard3_human PARD3, Q8TEW0
Remark: another data set of the same source

Variant	effect of a mutation on the interaction
Y125A;R126A;R127A	increasing interaction strength

Variants of: B2
Conditions: with kpci_mouse Prkci

Variant	effect of a mutation on the interaction
F823K	decreasing interaction strength
F823A	disrupting interaction strength
S827E;S829E	disrupting interaction strength
S829E	disrupting interaction strength
R820A	disrupting interaction strength
F818A	disrupting interaction strength
R832A	disrupting interaction strength
K831A	disrupting interaction strength
S827A	decreasing interaction strength
S827E	disrupting interaction strength
R825A	disrupting interaction strength
S827A;S829A	disrupting interaction strength
